Assay results taken from the RNAGym collection of RNA variant scans (doi:10.7554/elife.80360).

B1: HDV Ribozyme (parent)
chain: GGCCGGCAUGGUCCCAGCCUCCUCGCUGGCGCCGGCUGGGCAACAUUCCGAGGGGACCGUCCCCUCGGUAAUGGCGAAUGGGACCCA

Variants of: B1
Assay: self-cleavage, relative activity (ratio to wild type); higher = more cleavage; co-transcriptional
Work on U60C C86A yielded a self-cleavage of 0.831. U60C C86U gave a self-cleavage of 0.88. Variant C58A C85A has a self-cleavage of 0.877. C58A C85G gave a self-cleavage of 0.957. In the case of C58A G74C, the self-cleavage is reported as 0.324. Variant G59U C86G has a self-cleavage of 0.975. Variant G59U C86A has a self-cleavage of 0.855. Variant U60A U79A has a self-cleavage of 0.923. For U60A U79C, the self-cleavage was 0.515. C58G U65G gave a self-cleavage of 1.16. For C58G U65C, the self-cleavage was 0.782. C58A U72A showed a self-cleavage of 0.883. Work on C58A U72C yielded a self-cleavage of 0.802. Work on C58A U72G yielded a self-cleavage of 1.09. Variant G59A C61U has a self-cleavage of 1.11. G59A C61G gave a self-cleavage of 1.07. For G59C G76A, the self-cleavage was 0.767. G59C G76C gave a self-cleavage of 1.19. C58U U72C gave a self-cleavage of 0.415. For C58U U72G, the self-cleavage was 0.431. Variant C58U U72A has a self-cleavage of 0.58. G59U A77C showed a self-cleavage of 0.453. Work on G59U A77U yielded a self-cleavage of 0.47. U60C G74A showed a self-cleavage of 0.591. Work on G59C C63G yielded a self-cleavage of 0.909. G59C U65C gave a self-cleavage of 1.01. Work on C58A C64A yielded a self-cleavage of 0.962. Work on C58A A70U yielded a self-cleavage of 1. Work on G59U C62A yielded a self-cleavage of 0.831. Variant G59U C62G has a self-cleavage of 0.748. Work on G59U C62U yielded a self-cleavage of 1.07. For C58G C75U, the self-cleavage was 0.122. In the case of C58G C75A, the self-cleavage is reported as 0.196. Work on C57U G81A yielded a self-cleavage of 0.415. For C57U G81C, the self-cleavage was 0.0604. Work on G59U U79G yielded a self-cleavage of 0.692. Work on G59U U79C yielded a self-cleavage of 0.563. Work on U60C A78U yielded a self-cleavage of 0.229. U60C A78C showed a self-cleavage of 0.19. C58U G80U gave a self-cleavage of 0.132. With C57U G82U the self-cleavage was 0.234. Work on G59A U60C yielded a self-cleavage of 1.12. For G59A U60G, the self-cleavage was 0.956. Variant U60A U72G has a self-cleavage of 0.467. U60A U72C showed a self-cleavage of 0.415. C58U U79A gave a self-cleavage of 1.07. Work on C58U G82A yielded a self-cleavage of 0.906. C58U G82C gave a self-cleavage of 0.386. Work on C57U U69G yielded a self-cleavage of 1.27. In the case of C57U U79A, the self-cleavage is reported as 0.752. With C57U U79G the self-cleavage was 0.73. U60C A77U showed a self-cleavage of 0.831. C58A C86A showed a self-cleavage of 1.19. In the case of C58A C86G, the self-cleavage is reported as 0.909. Work on U60A G68U yielded a self-cleavage of 1.11. Work on U60A G68A yielded a self-cleavage of 0.917. Work on C58U C85U yielded a self-cleavage of 0.945. Variant C58U C85G has a self-cleavage of 1.07. C58A G81C gave a self-cleavage of 0.128. C58A G81U gave a self-cleavage of 0.397. With C58U C61U the self-cleavage was 0.954. C58U C61A showed a self-cleavage of 1.21. With C58A C62G the self-cleavage was 1.19. Work on C58A C62U yielded a self-cleavage of 1.08. U60A U69A showed a self-cleavage of 0.793. With U60A U69G the self-cleavage was 1.01. Variant G59C C62U has a self-cleavage of 1.12. G59A A70U gave a self-cleavage of 0.941. With G59A A70G the self-cleavage was 1.2. In the case of C58U A71U, the self-cleavage is reported as 1.16. Work on C58G U79A yielded a self-cleavage of 0.571. For G59C G73C, the self-cleavage was 0.575. For C58G C84U, the self-cleavage was 0.721. U60A C62U gave a self-cleavage of 1.08. U60A C62A gave a self-cleavage of 0.886. For C58U C64A, the self-cleavage was 0.867. U60A C84A showed a self-cleavage of 0.911. Work on U60A C84U yielded a self-cleavage of 0.793. With G59C C66G the self-cleavage was 1.14. U60C C66A gave a self-cleavage of 1.14. With G59C G81U the self-cleavage was 0.415. Variant G59A G68U has a self-cleavage of 0.92. For G59A G68C, the self-cleavage was 0.969. With C58G C63G the self-cleavage was 0.91. G59C U72C gave a self-cleavage of 0.917. With G59C U72A the self-cleavage was 0.773. In the case of G59C U72G, the self-cleavage is reported as 0.675. Work on U60C C84G yielded a self-cleavage of 0.856. For C58U U60G, the self-cleavage was 1.2. In the case of G59U G67C, the self-cleavage is reported as 0.963. Work on G59U G73U yielded a self-cleavage of 0.516. Work on G59U G73C yielded a self-cleavage of 0.614. Work on G59U A83C yielded a self-cleavage of 0.34. For C58A A77U, the self-cleavage was 0.78. Variant C58A A77C has a self-cleavage of 0.482. Work on C58A A77G yielded a self-cleavage of 1.09. G59U G74C gave a self-cleavage of 0.271. Work on G59U G74U yielded a self-cleavage of 0.502. For G59U G74A, the self-cleavage was 0.46. Work on G59A C75A yielded a self-cleavage of 0.163. Variant G59A C75U has a self-cleavage of 0.159. G59A C75G showed a self-cleavage of 0.177. Variant C58A G76U has a self-cleavage of 1.05. C58A G76C showed a self-cleavage of 1.1. In the case of G59C A87C, the self-cleavage is reported as 1.08. In the case of G59C A87G, the self-cleavage is reported as 0.99. Work on G59U G80U yielded a self-cleavage of 0.19. Work on G59U G80A yielded a self-cleavage of 0.295. With U60C G68C the self-cleavage was 0.755. U60C G68A showed a self-cleavage of 0.81. For U60C G68U, the self-cleavage was 1.2. G59C A83G gave a self-cleavage of 0.917. C57U G68U gave a self-cleavage of 1.17. Variant G59C U60G has a self-cleavage of 1.16. With C58G G73A the self-cleavage was 0.406. Work on U60A C85A yielded a self-cleavage of 0.831. G59U C64U showed a self-cleavage of 1.05. G59U C64G showed a self-cleavage of 1.13. Work on C58A C75U yielded a self-cleavage of 0.158. C58A C75A gave a self-cleavage of 0.201. Variant C57U U65C has a self-cleavage of 0.895. In the case of G59U C84G, the self-cleavage is reported as 0.731. Variant G59U C84U has a self-cleavage of 0.865. For U60C A71U, the self-cleavage was 0.665. In the case of C57U U60G, the self-cleavage is reported as 0.702. C57U U60C showed a self-cleavage of 0.906. G59A G82C showed a self-cleavage of 0.208. G59A G82A showed a self-cleavage of 0.466. Work on G59C A78C yielded a self-cleavage of 0.179. G59C A78G gave a self-cleavage of 0.778. C58G G81C gave a self-cleavage of 0.364. C58G G81U gave a self-cleavage of 0.26. G59C G82C showed a self-cleavage of 0.522. Work on G59U C66G yielded a self-cleavage of 0.981. G59U A78C showed a self-cleavage of 0.113. Work on G59U A78U yielded a self-cleavage of 0.285. Work on G59U C85G yielded a self-cleavage of 0.695. Work on G59U C85A yielded a self-cleavage of 0.749. G59U C85U showed a self-cleavage of 0.935. In the case of G59C C64A, the self-cleavage is reported as 0.946. G59C C64G showed a self-cleavage of 0.892. Variant G59A C84A has a self-cleavage of 0.929. C58U G59U showed a self-cleavage of 1.05. Variant U60A A71C has a self-cleavage of 0.73. G59U C61U showed a self-cleavage of 0.997. Variant G59A G80C has a self-cleavage of 0.226. Variant C58G G80U has a self-cleavage of 0.0903. For G59A A71C, the self-cleavage was 0.743. Work on C58G A83C yielded a self-cleavage of 0.386. With C58G A83G the self-cleavage was 0.633. With C58G A83U the self-cleavage was 0.776. Variant G59U U60A has a self-cleavage of 1.21. Variant C58U C63A has a self-cleavage of 0.986. C58U C63G gave a self-cleavage of 0.831. Work on U60C A83U yielded a self-cleavage of 0.653. U60A C61A showed a self-cleavage of 0.742. In the case of U60A C61U, the self-cleavage is reported as 1.15. With G59C C75U the self-cleavage was 0.233. Work on G59C C75G yielded a self-cleavage of 0.189. In the case of G59C G68A, the self-cleavage is reported as 0.906. For C58A C66A, the self-cleavage was 0.959. In the case of G59C A77C, the self-cleavage is reported as 0.101. With G59A G74U the self-cleavage was 0.561. C58A U65C showed a self-cleavage of 1.19. In the case of U60C C62U, the self-cleavage is reported as 0.997. Work on U60C C62G yielded a self-cleavage of 1.07. In the case of C58G G74C, the self-cleavage is reported as 0.101.
